Assay results as given in patent US20110207656A1 (Dana-Farber, published 2011).
Ends that are not written are not given here.

Molecular target: T1, purified FADD protein (human, UniProt Q13158 1-208, limits assumed)
T1 sequence: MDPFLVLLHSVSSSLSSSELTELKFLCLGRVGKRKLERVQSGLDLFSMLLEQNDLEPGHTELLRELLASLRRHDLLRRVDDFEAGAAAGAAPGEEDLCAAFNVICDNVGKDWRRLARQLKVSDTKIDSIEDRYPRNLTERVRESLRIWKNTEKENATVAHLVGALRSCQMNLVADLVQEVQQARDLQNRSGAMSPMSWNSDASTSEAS
Assay: GST pull-down of purified FADD, anti-FADD immunoblot
Description: In vitro binding assays. Purified GST, GST-MUC1-CD(1-72), GST-MUC1-CD deletion mutants, GST-caspase-8, GST-caspase-8 deletion mutants, GST-FADD, GST-N-FADD and GST-C-FADD protein (36) were purified from E. coli (BL21 DE3) and immobilized on glutathione-agarose beads (Pierce). His-MUC1-CD(1-72) and His-caspase-8 deletion mutant proteins were purified on Ni-NTA beads (Qiagen, Valencia, Calif.). GST and GST fusion proteins bound to glutathione beads were incubated with purified soluble proteins for 2 hours at 4° C., and washed. Adsorbates bound to the beads were analyzed by solubilizing the protein/bead mixture in Laemli buffer following by sodium dodecyl sulfate polyacrylamide gel electrophoresis (SDS-PAGE) and immunoblotting. For competition studies, GST-caspase-8 DED protein bound to FADD was incubated with increasing amounts of MUC1-CD protein. Precipitated proteins were subjected to SDS-PAGE and immunoblot analysis. In certain studies, binding was performed in the presence of a synthetic peptide ([…]) (SEQ ID NO:3) derived from amino acids 1-20 from MUC1-CD (Molecular Biology Core Facility, Dana-Farber Cancer Institute).

binding result: no binding
B1: GST-MUC1-CD(1-45) (other)
chain: {GST}-CQCRRKNYGQLDIFPARDTYHPMSEYPTYHTHGRYVPPSSTDRSP
modifications: cysteine pairing not given here; also: linker to GST not given here
notes: also called GST-MUC1-CD deletion mutant; not shown: GST fusion partner at the N end, and any linker to it
